From patent publication US20250188133A1, “CHIMERIC BACTERIOCINS AND METHOD FOR THE CONTROL OF PSEUDOMONAS” (priority 2022, published 2025)

B1: S5-Pflu095: chimeric bacteriocin SEQ ID NO: 9: pyocin S5 first segment fused to P. fluorescens Pflu095 killing domain (protein)
chain: MSNDNEVPGSMVIVAQGPDDQYAYEVPPIDSAAVAGNMFGDLIQREIYLQKNIYYPVRSIFEQGTKEKKEINKKVSDQVDGLLKQITQGKREATRQERVDVMSAVLHKMESDLEGYKKTFTKGPFIDYEKQSSLSIYEAWVKIWEKNSWEERKKYPFQQLVRDELERAVAYYKQDSLSEAVKVLRQELNKQKALKEKEDLSQLERDYRTRKANLEMKVQSELDQAGSALPPLVSPTPEQWLERATRLVTQAIADKKQLQTTNNTLIKNSPTPLEKQKAIYNGELLVDEIASLQARLVKLNAETTRRRTEKDKVRTEVVDIEAAIKFTSDFYAEAGVRFGDSASKLASDLADSAQGKKIRSADEAFKAFDKYKNELDKKFSVKDRAAAAKYIDSIDYEAIGKAATKFSKGLGYVGPVIDAKDSIIEFINSMESGDWKPFFLKLESIALGLAATAFVGIAFGFIATTPMGILAFAFIVAATGAAIDDNFAEKLNKFVSSL
modifications: S5-Pflu095
B2: S5-Pflu373: chimeric bacteriocin SEQ ID NO: 13: pyocin S5 first segment fused to P. fluorescens Pflu373 killing domain (protein)
chain: MSNDNEVPGSMVIVAQGPDDQYAYEVPPIDSAAVAGNMFGDLIQREIYLQKNIYYPVRSIFEQGTKEKKEINKKVSDQVDGLLKQITQGKREATRQERVDVMSAVLHKMESDLEGYKKTFTKGPFIDYEKQSSLSIYEAWVKIWEKNSWEERKKYPFQQLVRDELERAVAYYKQDSLSEAVKVLRQELNKQKALKEKEDLSQLERDYRTRKANLEMKVQSELDQAGSALPPLVSPTPEQWLERATRLVTQAIADKKQLQTTNNTLIKNSPTPLEKQKAIYNGELLVDEIASLQARLVKLNAETTRRRTEAEEQAKAEEEIKGAIKFTADFYKEIGEKYGAQMTASATDLAETAKGKTLRSAEEALKAFDQYKDHLDKKFSAADRAAIVNALDSLDRAELAKNLNLFAKGFGYTSKAFDVYDLVEEVKKSYASGDWNNTALKVETLFAGSAATGLIAFAFGVTVSTPVGIVAFALIMALVSAYIDDAHVKQFNDALDAILP
modifications: S5-Pflu373

What was measured:
Type in all cases: cell-based
[1] = system: P. aeruginosa strains; assay: agar disc-diffusion assay, panel of 25 strains; conditions: for activity spectrum / profile in agar disc diffusion assay: panel of 25 P. aeruginosa strains, in words
Method: (§1) Overnight P. aeruginosa cultures grown in CAA medium were equalized till OD595=1.0 in CAA and diluted 100×. Sterile cotton swab was briefly submerged in diluted microbial suspension, removing the excess of liquid by pressing it against the container wall. The swab was used for evenly streaking bacteria on plates containing growth medium with CAA solid agar (1.5%). 6 mm diameter sterile Whatman discs were placed on soft-agar and 0.3-30 μg of chimeric pyocins were spotted to paper disks. The plates were incubated overnight at 37° C. and bacteriocin inhibition zones were observed.
(§2) Next, all 25 P. aeruginosa strains were subjected to agar disc-diffusion assay by spotting different amounts of purified pyocin S5 (0.3 μg, 3 μg and 30 μg) on bacteria lawns. Six P. aeruginosa strains were resistant to pyocin S5. Four of these six strains were pyocin S5 and immunity protein-encoding strains—PA14, PAO1, […] and NCTC 13921. Two cystic fibrosis isolates, 12-35708 and 12-29165 were also completely resistant to pyocin S5, despite the absence of S5, or S5 immunity protein coding genes. […] Turbid inhibition zones were detected when 3 μg and 30 μg of S5 were spotted on the lawn of these strains (Table 1, FIG. 3).

[2] = system: P. aeruginosa NCTC 13921; assay: agar disc-diffusion assay; conditions: strain NCTC 13921; 0.3, 3 and 30 μg of protein spotted on discs on CAA agar lawn, overnight
Method: as §1, §2

[3] = system: P. aeruginosa HP52; assay: agar disc-diffusion assay; conditions: strain HP52; 0.3, 3 and 30 μg of protein spotted on discs on CAA agar lawn, overnight
Method: as §1, §2

[4] = system: P. aeruginosa Bu002; assay: agar disc-diffusion assay; conditions: strain Bu002; 0.3, 3 and 30 μg of protein spotted on discs on CAA agar lawn, overnight
Method: as §1, §2

[5] = system: P. aeruginosa BI80; assay: agar disc-diffusion assay; conditions: strain BI80; 0.3, 3 and 30 μg of protein spotted on discs on CAA agar lawn, overnight
Method: as §1, §2

[6] = system: P. aeruginosa BL77; assay: agar disc-diffusion assay; conditions: strain BL77; 0.3, 3 and 30 μg of protein spotted on discs on CAA agar lawn, overnight
Method: as §1, §2

[7] = system: P. aeruginosa PA14; assay: agar disc-diffusion assay; conditions: strain PA14; 0.3, 3 and 30 μg of protein spotted on discs on CAA agar lawn, overnight
Method: as §1, §2

[8] = system: P. aeruginosa HP7; assay: agar disc-diffusion assay; conditions: strain HP7; 0.3, 3 and 30 μg of protein spotted on discs on CAA agar lawn, overnight
Method: as §1, §2

[9] = system: P. aeruginosa 13-18499; assay: agar disc-diffusion assay; conditions: strain 13-18499; 0.3, 3 and 30 μg of protein spotted on discs on CAA agar lawn, overnight
Method: as §1, §2

[10] = system: P. aeruginosa Boston 41501 (ATCC 27853); assay: agar disc-diffusion assay; conditions: strain Boston; 0.3, 3 and 30 μg of protein spotted on discs on CAA agar lawn, overnight
Method: as §1, §2

[11] = system: P. aeruginosa HP1; assay: agar disc-diffusion assay; conditions: strain HP1; 0.3, 3 and 30 μg of protein spotted on discs on CAA agar lawn, overnight
Method: as §1, §2

[12] = system: P. aeruginosa HP75; assay: agar disc-diffusion assay; conditions: strain HP75; 0.3, 3 and 30 μg of protein spotted on discs on CAA agar lawn, overnight
Method: as §1, §2

[13] = system: P. aeruginosa BR79; assay: agar disc-diffusion assay; conditions: strain BR79; 0.3, 3 and 30 μg of protein spotted on discs on CAA agar lawn, overnight
Method: as §1, §2

[14] = system: P. aeruginosa Pr335; assay: agar disc-diffusion assay; conditions: strain Pr335; 0.3, 3 and 30 μg of protein spotted on discs on CAA agar lawn, overnight
Method: as §1, §2

[15] = system: P. aeruginosa HP41; assay: agar disc-diffusion assay; conditions: strain HP41; 0.3, 3 and 30 μg of protein spotted on discs on CAA agar lawn, overnight
Method: as §1, §2

[16] = system: P. aeruginosa ATCC 29260; assay: agar disc-diffusion assay; conditions: strain ATCC 29260; 0.3, 3 and 30 μg of protein spotted on discs on CAA agar lawn, overnight
Method: as §1, §2

[17] = system: P. aeruginosa ATCC 19660; assay: agar disc-diffusion assay; conditions: strain ATCC 19660; 0.3, 3 and 30 μg of protein spotted on discs on CAA agar lawn, overnight
Method: as §1, §2

[18] = system: P. aeruginosa PAO1; assay: agar disc-diffusion assay; conditions: strain PAO1; 0.3, 3 and 30 μg of protein spotted on discs on CAA agar lawn, overnight
Method: as §1, §2

[19] = system: P. aeruginosa A19; assay: agar disc-diffusion assay; conditions: strain A19; 0.3, 3 and 30 μg of protein spotted on discs on CAA agar lawn, overnight
Method: as §1, §2

[20] = system: P. aeruginosa NCTC 13437; assay: agar disc-diffusion assay; conditions: strain NCTC 13437; 0.3, 3 and 30 μg of protein spotted on discs on CAA agar lawn, overnight
Method: as §1, §2

[21] = system: P. aeruginosa HP40; assay: agar disc-diffusion assay; conditions: strain HP40; 0.3, 3 and 30 μg of protein spotted on discs on CAA agar lawn, overnight
Method: as §1, §2

[22] = system: P. aeruginosa UR78; assay: agar disc-diffusion assay; conditions: strain UR78; 0.3, 3 and 30 μg of protein spotted on discs on CAA agar lawn, overnight
Method: as §1, §2

[23] = system: P. aeruginosa HP6; assay: agar disc-diffusion assay; conditions: strain HP6; 0.3, 3 and 30 μg of protein spotted on discs on CAA agar lawn, overnight
Method: as §1, §2

[24] = system: P. aeruginosa EY76; assay: agar disc-diffusion assay; conditions: strain EY76; 0.3, 3 and 30 μg of protein spotted on discs on CAA agar lawn, overnight
Method: as §1, §2

Row | Molecule | activity spectrum / profile in agar disc diffusion assay [1] | Activity in agar disc-diffusion assay [2] | Activity in agar disc-diffusion assay [3] | Activity in agar disc-diffusion assay [4] | Activity in agar disc-diffusion assay [5] | Activity in agar disc-diffusion assay [6] | Activity in agar disc-diffusion assay [7] | Activity in agar disc-diffusion assay [8] | Activity in agar disc-diffusion assay [9] | Activity in agar disc-diffusion assay [10] | Activity in agar disc-diffusion assay [11] | Activity in agar disc-diffusion assay [12] | Activity in agar disc-diffusion assay [13] | Activity in agar disc-diffusion assay [14] | Activity in agar disc-diffusion assay [15] | Activity in agar disc-diffusion assay [16] | Activity in agar disc-diffusion assay [18] | Activity in agar disc-diffusion assay [19] | Activity in agar disc-diffusion assay [20] | Activity in agar disc-diffusion assay [21] | further results
1 | B1 | broadened activity spectrum in comparison to pyocin S5 | *** (activity detected with 0.3 μg of protein) | ** (activity detected with 3 μg of protein) | *** (activity detected with 0.3 μg of protein) | *** (activity detected with 0.3 μg of protein) | ** (activity detected with 3 μg of protein) | ** (activity detected with 3 μg of protein) | *** (activity detected with 0.3 μg of protein) | ** (activity detected with 3 μg of protein) | *** (activity detected with 0.3 μg of protein) | *** (activity detected with 0.3 μg of protein) | * (activity detected only with 30 μg of protein) | ** (activity detected with 3 μg of protein) | *** (activity detected with 0.3 μg of protein) | *** (activity detected with 0.3 μg of protein) | *** (activity detected with 0.3 μg of protein) | *** (activity detected with 0.3 μg of protein) | *** (activity detected with 0.3 μg of protein) | * (activity detected only with 30 μg of protein) | *** (activity detected with 0.3 μg of protein) | inhibition on lawns of S5 producer strains HP6 and HP7 ([1]; clinical isolates HP6 and HP7, S5 gave turbid zones with 3 μg and 30 μg): significantly larger and clearer than those formed by S5; inhibition zones on lawns of S5-producing strains ([1]; six pyocin S5 and immunity gene-positive strains (PA14, PAO1, HP6, HP7, ATCC 19660, NCTC 13921)): formed inhibition zones on the lawns of all six S5-producing strains; Activity in agar disc-diffusion assay [17]: * (activity detected only with 30 μg of protein); Activity in agar disc-diffusion assay [22]: *** (activity detected with 0.3 μg of protein); Activity in agar disc-diffusion assay [23]: *** (activity detected with 0.3 μg of protein); Activity in agar disc-diffusion assay [24]: *** (activity detected with 0.3 μg of protein)
2 | B2 | good activity profile, similar to S5-Pflu095 | ** (activity detected with 3 μg of protein) | ** (activity detected with 3 μg of protein) | *** (activity detected with 0.3 μg of protein) | *** (activity detected with 0.3 μg of protein) | ** (activity detected with 3 μg of protein) | ** (activity detected with 3 μg of protein) | *** (activity detected with 0.3 μg of protein) | ** (activity detected with 3 μg of protein) | *** (activity detected with 0.3 μg of protein) | *** (activity detected with 0.3 μg of protein) | ** (activity detected with 3 μg of protein) | ** (activity detected with 3 μg of protein) | *** (activity detected with 0.3 μg of protein) | *** (activity detected with 0.3 μg of protein) | *** (activity detected with 0.3 μg of protein) | *** (activity detected with 0.3 μg of protein) | *** (activity detected with 0.3 μg of protein) | * (activity detected only with 30 μg of protein) | *** (activity detected with 0.3 μg of protein) | Activity in agar disc-diffusion assay [22]: *** (activity detected with 0.3 μg of protein); Activity in agar disc-diffusion assay [23]: *** (activity detected with 0.3 μg of protein); Activity in agar disc-diffusion assay [24]: *** (activity detected with 0.3 μg of protein)
